The target in data set [1] is lac repressor M42I/K84L (IhL) (UniProt P03023 1-360, M42I;K84L). Nature of the data set: fluorescence anisotropy.
Data set [2] addresses lac repressor M42I (Ihk) (UniProt P03023 1-360, M42I). Put plainly: fluorescence anisotropy. On the technique in general: Polarisation of emitted light reports the rotation of a fluorescent probe.

Sequence of lac repressor M42I/K84L (IhL) (P03023 whole entry M42I/K84L): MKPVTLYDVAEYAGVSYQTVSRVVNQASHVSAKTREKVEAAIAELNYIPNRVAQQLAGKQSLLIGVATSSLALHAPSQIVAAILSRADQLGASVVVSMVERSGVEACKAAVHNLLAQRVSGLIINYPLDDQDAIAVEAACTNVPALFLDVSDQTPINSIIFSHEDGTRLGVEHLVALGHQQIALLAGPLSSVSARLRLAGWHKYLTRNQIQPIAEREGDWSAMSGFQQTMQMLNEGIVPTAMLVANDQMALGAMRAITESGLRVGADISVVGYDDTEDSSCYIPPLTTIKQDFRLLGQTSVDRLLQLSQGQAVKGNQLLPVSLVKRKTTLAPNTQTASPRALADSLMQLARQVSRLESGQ
Sequence of lac repressor M42I (Ihk) (P03023 whole entry M42I): as the sequence (P03023 whole entry M42I/K84L) above, with L84K counted along it

B1: FI-Oid (18-mer operator) (dsDNA)
DNA 1: ATTGTGAGCGCTCACAAT
DNA 2: ATTGTGAGCGCTCACAAT
Consider B1, for which the binding result in data set [1] and in data set [2] was “binds” each time.

The values are drawn from doi:10.1101/2022.10.14.512271.
